One assay has as its target CD14 (human) (UniProt P08571). Briefly: cell-based or functional assay.
Assay [1] addresses human TLR4 (Toll-like receptor 4) (human) (UniProt O00206). Briefly: cell-based or functional assay.
UniProt O00206, sequence (O00206 24-839): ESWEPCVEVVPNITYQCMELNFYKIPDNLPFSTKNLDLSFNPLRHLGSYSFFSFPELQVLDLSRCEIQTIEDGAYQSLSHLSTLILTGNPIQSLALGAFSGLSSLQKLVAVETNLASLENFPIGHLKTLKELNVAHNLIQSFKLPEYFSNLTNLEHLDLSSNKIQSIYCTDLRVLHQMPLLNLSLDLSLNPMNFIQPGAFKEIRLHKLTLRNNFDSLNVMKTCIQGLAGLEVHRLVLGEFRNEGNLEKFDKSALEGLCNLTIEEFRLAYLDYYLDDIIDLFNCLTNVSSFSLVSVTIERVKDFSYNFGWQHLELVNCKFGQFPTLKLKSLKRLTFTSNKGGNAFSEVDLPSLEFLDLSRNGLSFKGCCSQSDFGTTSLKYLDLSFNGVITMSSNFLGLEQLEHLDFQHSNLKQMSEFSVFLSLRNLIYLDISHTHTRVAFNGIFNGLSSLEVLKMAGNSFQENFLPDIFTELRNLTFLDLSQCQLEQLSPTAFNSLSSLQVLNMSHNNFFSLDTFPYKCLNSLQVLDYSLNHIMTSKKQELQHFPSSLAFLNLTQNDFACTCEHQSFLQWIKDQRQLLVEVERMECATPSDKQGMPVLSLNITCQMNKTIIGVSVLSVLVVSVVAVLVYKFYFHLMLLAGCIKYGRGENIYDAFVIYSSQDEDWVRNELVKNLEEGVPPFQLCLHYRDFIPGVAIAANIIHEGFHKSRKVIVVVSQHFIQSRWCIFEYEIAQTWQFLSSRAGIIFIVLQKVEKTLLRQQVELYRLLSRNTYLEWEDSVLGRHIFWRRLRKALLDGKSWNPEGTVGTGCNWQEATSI

UniProt P08571, sequence (P08571 20-345): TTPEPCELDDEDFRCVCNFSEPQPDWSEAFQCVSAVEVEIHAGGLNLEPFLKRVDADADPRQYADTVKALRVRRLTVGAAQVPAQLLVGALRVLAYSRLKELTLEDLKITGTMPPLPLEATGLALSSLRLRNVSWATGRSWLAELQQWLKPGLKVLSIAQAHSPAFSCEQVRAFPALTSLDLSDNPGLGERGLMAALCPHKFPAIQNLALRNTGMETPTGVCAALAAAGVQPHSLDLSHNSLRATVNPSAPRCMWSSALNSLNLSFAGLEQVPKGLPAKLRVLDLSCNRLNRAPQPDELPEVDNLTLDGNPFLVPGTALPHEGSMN

With “anti-CD14 neutralizing antibody (rhCD14, ref.: AB383, R&D Systems-UK)”, the inhibition of TNF-alpha secretion by human PBMCs stimulated with Env-SU, cells preincubated with anti-CD14 antibody with CD14 (human) stood at 83%.
In assay [1], “anti-human TLR4 monoclonal antibody HTA125 (eBioscience)” showed an inhibition of TNF-alpha secretion by human PBMCs stimulated with Env-SU, cells preincubated with anti-TLR4 antibody of 37%.

These data come from patent US7666420.
